The source of these data is patent publication US20140322196A1.

Common to all, as to test: cell-based or functional assay
The target of test [1] is Hemagglutinin (HA) of Influenza A virus A/Wisconsin/67/2005 H3N2 (inactivated subunits, vaccine) (Influenza A virus A/Wisconsin/67/2005 H3N2).
In test [2] the target is Hemagglutinin (HA) of Influenza A virus A/Solomon 3/2006 H1N1 (inactivated subunits, vaccine) (Influenza A virus A/Solomon 3/2006 H1N1).
For test [3], the target named is Hemagglutinin (HA) of Influenza A virus A/Parma/24/09 (Brisbane-like) (oseltamivir-resistant) H1N1 (Influenza A virus A/Parma/24/09 H1N1).

B1: bLf C-lobe (aa 345-689) (protein)
chain: VVWCAVGPEEQKKCQQWSQQSGQNVTCATASTTDDCIVLVLKGEADALNLDGGYIYTAGKCGLVPVLAENRKSSKHSSLDCVLRPTEGYLAVAVVKKANEGLTWNSLKDKKSCHTAVDRTAGWNIPMGLIVNQTGSCAFDEFFSQSCAPGADPKSRLCALCAGDDQGLDKCVPNSKEKYYGYTGAFRCLAEDVGDVAFVKNDTVWENTNGESTADWAKNLNREDFRLLCLDGTRKPVTEAQSCHLAVAPNHAVVSRSDRAAHVKQVLLHQQALFGKNGKNCPDKFCLFKSETKNLLFNDNTECLAKLGGRPTYEEYLGTEYVTAIANLKKCSTSPLLEACAFLTR
With B1, the activity on viral hemagglutination (HI) in test [1] was 1.2 pM; in test [2], 5 pM; in test [3], 10 nM.

B2: bLf C-lobe (aa 285-689) (protein)
chain: SFQLFGSPPGQRDLLFKDSALGFLRIPSKVDSALYLGSRYLTTLKNLRETAEEVKARYTRVVWCAVGPEEQKKCQQWSQQSGQNVTCATASTTDDCIVLVLKGEADALNLDGGYIYTAGKCGLVPVLAENRKSSKHSSLDCVLRPTEGYLAVAVVKKANEGLTWNSLKDKKSCHTAVDRTAGWNIPMGLIVNQTGSCAFDEFFSQSCAPGADPKSRLCALCAGDDQGLDKCVPNSKEKYYGYTGAFRCLAEDVGDVAFVKNDTVWENTNGESTADWAKNLNREDFRLLCLDGTRKPVTEAQSCHLAVAPNHAVVSRSDRAAHVKQVLLHQQALFGKNGKNCPDKFCLFKSETKNLLFNDNTECLAKLGGRPTYEEYLGTEYVTAIANLKKCSTSPLLEACAFLTR
Take B2: the figures for the activity on viral hemagglutination (HI) in test [1], in test [2] and in test [3] were 1.6 pM, 5 pM and 24 nM, respectively.
